The record followed here is paper doi:10.1101/2020.05.16.099382 (bioRxiv, 2020).

First the molecules themselves.
B8: Rubisco large subunit of Nostoc sp. PCC 7120 (natural protein, UniProt P00879 1-476, looked up)
chain: MSYAQTKTQTKSGYKAGVQDYRLTYYTPDYTPKDTDILAAFRVTPQPGVPFEEAAAAVAAESSTGTWTTVWTDLLTDLDRYKGRCYDIEPVPGEDNQFIAYIAYPLDLFEEGSITNVLTSIVGNVFGFKALRALRLEDIRFPVAYIKTFQGPPHGIQVERDKLNKYGRPLLGCTIKPKLGLSAKNYGRAVYECLRGGLDFTKDDENINSAPFQRWRDRFLFVADAITKAQAETGEIKGHYLNVTAPTCEEMLKRAEYAKELKQPIIMHDYLTAGFTANTTLARWCRDNGVLLHIHRAMHAVIDRQKNHGIHFRVLAKALRLSGGDHIHTGTVVGKLEGERGITMGFVDLLRENYVEQDKSRGIYFTQDWASLPGVMAVASGGIHVWHMPALVEIFGDDSVLQFGGGTLGHPWGNAPGATANRVALEACVQARNEGRNLAREGNDVIREAAKWSPELAVACELWKEIKFEFEAMDTV

The series “SEC-MALS” concerns the molecule itself. Put plainly: SEC-MALS. (In general: In gel filtration, larger molecules generally elute earlier.)
For series [1], the target named is B8. Put plainly: cryo-EM structure.
The target in series [2] is B8. Put plainly: cryo-EM structure. The source holds these as a separate data set.
The series “cryo-EM structure” deals with the molecule itself. Put plainly: cryo-EM structure.

Like-named read-outs stand apart in the source and are kept apart here.

As usually defined, the stoichiometry N is a count of units in the complex or per binding partner.

B1: NosRcaΔC (NosRca lacking the C-terminal 123 residues: linker and SSUL domain) (domain or fragment, Nostoc sp. PCC 7120, UniProt P58555 2-291, looked up)
chain: SYYIAPRFLDKLAVHITKNFLNIPGVRVPLILGIHGRKGEGKTFQCELAFEKMGIEVTLISGGELESPDAGDPARLIRLRYRETAELIKVRGKMCVLMINDLDAGAGRFDEGTQYTVNTQLVNATLMNIADNPTDVQLPGSYDSNPIRRVPIIVTGNDFSTLYAPLIRDGRMEKFYWEPNRDDKVGIVGGIFAEDGLSQREIEQLVDTFPKQSIDFFSALRSRIYDIQIRDFIHKVGFERISLRVVNSLEAPPEFKKPDFSLAHLIESGNLVLGEQQRVDNSQLVDEYNR
Consider B1, for which the “stoichiometry N” value in the series “SEC-MALS” was 6.

B2: NosRcaΔC L244D/N248A/L250A (domain or fragment, Nostoc sp. PCC 7120, UniProt P58555 2-291, looked up)
chain: SYYIAPRFLDKLAVHITKNFLNIPGVRVPLILGIHGRKGEGKTFQCELAFEKMGIEVTLISGGELESPDAGDPARLIRLRYRETAELIKVRGKMCVLMINDLDAGAGRFDEGTQYTVNTQLVNATLMNIADNPTDVQLPGSYDSNPIRRVPIIVTGNDFSTLYAPLIRDGRMEKFYWEPNRDDKVGIVGGIFAEDGLSQREIEQLVDTFPKQSIDFFSALRSRIYDIQIRDFIHKVGFERISDRVVASAEAPPEFKKPDFSLAHLIESGNLVLGEQQRVDNSQLVDEYNR
For B2, the “stoichiometry N” value in the series “SEC-MALS” was found to be 6.

B3: NosRcaΔC V91E/R92G/G93N (domain or fragment, Nostoc sp. PCC 7120, UniProt P58555 2-291, looked up)
chain: SYYIAPRFLDKLAVHITKNFLNIPGVRVPLILGIHGRKGEGKTFQCELAFEKMGIEVTLISGGELESPDAGDPARLIRLRYRETAELIKEGNKMCVLMINDLDAGAGRFDEGTQYTVNTQLVNATLMNIADNPTDVQLPGSYDSNPIRRVPIIVTGNDFSTLYAPLIRDGRMEKFYWEPNRDDKVGIVGGIFAEDGLSQREIEQLVDTFPKQSIDFFSALRSRIYDIQIRDFIHKVGFERISLRVVNSLEAPPEFKKPDFSLAHLIESGNLVLGEQQRVDNSQLVDEYNR
With B3, the “stoichiometry N” value in “SEC-MALS” was 6.

B4: NosRcaΔC P140G/Y143A/D144A (domain or fragment, Nostoc sp. PCC 7120, UniProt P58555 2-291, looked up)
chain: SYYIAPRFLDKLAVHITKNFLNIPGVRVPLILGIHGRKGEGKTFQCELAFEKMGIEVTLISGGELESPDAGDPARLIRLRYRETAELIKVRGKMCVLMINDLDAGAGRFDEGTQYTVNTQLVNATLMNIADNPTDVQLGGSAASNPIRRVPIIVTGNDFSTLYAPLIRDGRMEKFYWEPNRDDKVGIVGGIFAEDGLSQREIEQLVDTFPKQSIDFFSALRSRIYDIQIRDFIHKVGFERISLRVVNSLEAPPEFKKPDFSLAHLIESGNLVLGEQQRVDNSQLVDEYNR
Regarding B4, the “stoichiometry N” value in the series “SEC-MALS” came out at 6.

B5: Rubisco small subunit of Nostoc sp. PCC 7120 (natural protein, UniProt P06514 1-109, looked up)
chain: MQTLPKERRYETLSYLPPLTDVQIEKQVQYILSQGYIPAVEFNEVSEPTELYWTLWKLPLFGAKTSREVLAEVQSCRSQYPGHYIRVVGFDNIKQCQILSFIVHKPSRY
For B5, the binding result in series [1] was “binds”.

B6: Rubisco activase ('Rca-like' protein) of Nostoc sp. PCC 7120 (natural protein, UniProt P58555 2-414, looked up)
chain: SYYIAPRFLDKLAVHITKNFLNIPGVRVPLILGIHGRKGEGKTFQCELAFEKMGIEVTLISGGELESPDAGDPARLIRLRYRETAELIKVRGKMCVLMINDLDAGAGRFDEGTQYTVNTQLVNATLMNIADNPTDVQLPGSYDSNPIRRVPIIVTGNDFSTLYAPLIRDGRMEKFYWEPNRDDKVGIVGGIFAEDGLSQREIEQLVDTFPKQSIDFFSALRSRIYDIQIRDFIHKVGFERISLRVVNSLEAPPEFKKPDFSLAHLIESGNLVLGEQQRVDNSQLVDEYNRLNRGRGYQTAPPPEAPVIQPVNNSSHKQKTSNTHLSLETQEQIRQILSQGHKITFEHVDARRFRTGSWQSCGTLHIDAESDAISTLEACLVDYDGEYVRMVGIDPKGKRRVVETIIQRPNGKN
As for B6, the binding result in series [2] is given as “binds”. Moreover, the “stoichiometry N” value in the series “SEC-MALS” stood at 6.

B7: NosRca-IFmut (NosRca V91E/R92G/G93N/L244D/N248A/L250A) (natural protein, Nostoc sp. PCC 7120, UniProt P58555 2-414, looked up)
chain: SYYIAPRFLDKLAVHITKNFLNIPGVRVPLILGIHGRKGEGKTFQCELAFEKMGIEVTLISGGELESPDAGDPARLIRLRYRETAELIKEGNKMCVLMINDLDAGAGRFDEGTQYTVNTQLVNATLMNIADNPTDVQLPGSYDSNPIRRVPIIVTGNDFSTLYAPLIRDGRMEKFYWEPNRDDKVGIVGGIFAEDGLSQREIEQLVDTFPKQSIDFFSALRSRIYDIQIRDFIHKVGFERISDRVVASAEAPPEFKKPDFSLAHLIESGNLVLGEQQRVDNSQLVDEYNRLNRGRGYQTAPPPEAPVIQPVNNSSHKQKTSNTHLSLETQEQIRQILSQGHKITFEHVDARRFRTGSWQSCGTLHIDAESDAISTLEACLVDYDGEYVRMVGIDPKGKRRVVETIIQRPNGKN
As for B7, the “stoichiometry N” value in “SEC-MALS” amounted to 6. For the molecule B8, the binding result in the series “cryo-EM structure” is “binds”.
